Laboratory results: patent US6440701 (AVENTIS PASTEUR, dated 2002)

Target: apo-hTf-Sepharose 4B (human apo-transferrin coupled to Sepharose 4B) (human, UniProt P02787 20-698, coupled to Sepharose 4B)
Assay: affinity chromatography of solubilized membranes on apo-hTf-Sepharose 4B

Chain of apo-hTf-Sepharose 4B (human apo-transferrin coupled to Sepharose 4B) (P02787 20-698 limits assumed): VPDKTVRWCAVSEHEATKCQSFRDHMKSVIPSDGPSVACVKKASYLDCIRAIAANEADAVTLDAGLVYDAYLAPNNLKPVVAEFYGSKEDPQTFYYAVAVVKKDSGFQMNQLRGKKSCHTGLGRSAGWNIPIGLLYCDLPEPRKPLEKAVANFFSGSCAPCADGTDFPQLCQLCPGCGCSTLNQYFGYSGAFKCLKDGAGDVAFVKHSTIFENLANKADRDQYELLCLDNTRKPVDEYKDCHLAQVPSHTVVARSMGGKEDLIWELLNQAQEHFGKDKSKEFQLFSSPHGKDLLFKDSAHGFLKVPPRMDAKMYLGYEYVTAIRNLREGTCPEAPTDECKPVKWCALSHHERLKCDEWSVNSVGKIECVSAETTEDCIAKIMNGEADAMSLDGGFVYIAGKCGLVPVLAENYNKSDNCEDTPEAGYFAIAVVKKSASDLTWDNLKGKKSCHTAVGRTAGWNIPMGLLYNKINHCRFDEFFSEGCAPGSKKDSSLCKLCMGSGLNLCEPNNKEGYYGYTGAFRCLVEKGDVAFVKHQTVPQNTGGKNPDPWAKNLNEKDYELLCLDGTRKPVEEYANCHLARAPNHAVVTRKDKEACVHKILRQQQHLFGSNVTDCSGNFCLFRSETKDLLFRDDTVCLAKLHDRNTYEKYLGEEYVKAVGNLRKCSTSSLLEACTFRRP

B1: Native Tbp2 (4223) (receptor)
chain: CGGSGGSNPPAPTPIPNASGSGNTGNTGNAGGTDNTANAGNTGGTNSGTGSANTPEPKYQDVPTEKNEKDKVSSIQEPAMGYGMALSKINLHNRQDTPLDEKNIITLDGKKQVAEGKKSPLPFSLDVENKLLDGYIAKMNVADKNAIGDRIKKGNKEISDEELAKQIKEAVRKSHEFQQVLSSLENKIFHSNDGTTKATTRDLKYVDYGYYLANDGNYLTVKTDKLWNLGPVGGVFYNGTTTAKELPTQDAVKYKGHWDFMTDVANRRNRFSEVKENSQAGWYYGASSKDEYNRLLTKEDSAPDGHSGEYGHSSEFTVNFKEKKLTGKLFSNLQDRHKGNVTKTERYDIDANIHGNRFRGSATASNKNDTSKHPFTSDANNRLEGGFYGPKGEELAGKFLTNDNKLFGVFGAKRESKAEEKTEAILDAYALGTFNTSNATTFTPFTEKQLDNFGNAKKLVLGSTVIDLVPTDATKNEFTKDKPESATNEAGETLMVNDEVSVKTYGKNFEYLKFGELSIGGSHSVFLQGERTATTGEKAVPTTGTAKYLGNWVGYITGKDTGTGTGKSFTDAQDVADFDIDFGNKSVSGKLITKGRQDPVFSITGQIAGNGWTGTASTTKADAGGYKIDSSSTGKSIVIKDANVTGGFYGPNANEMGGSFTHNADDSKASVVFGTKRQQEVK
  binding result: binds
